# Assay results from patent publication US20100233154A1, “TARGETED BINDING AGENTS DIRECTED TO HEPARANASE AND USES THEREOF 463” (MedImmune Limited, priority 2008, published 2010).
# T1: recombinant human heparanase (Homo sapiens, UniProt Q9Y251)
# T1 construct: Heparanase 8 and 50 kDa sub-units were cloned into pacGP67 as Sma 1-EcoR1 fragments; made in house; host or cells: Hi5 insect cells, baculovirus (pFastBac Dual)
# T1 sequence (Q9Y251 158-543 limits assumed): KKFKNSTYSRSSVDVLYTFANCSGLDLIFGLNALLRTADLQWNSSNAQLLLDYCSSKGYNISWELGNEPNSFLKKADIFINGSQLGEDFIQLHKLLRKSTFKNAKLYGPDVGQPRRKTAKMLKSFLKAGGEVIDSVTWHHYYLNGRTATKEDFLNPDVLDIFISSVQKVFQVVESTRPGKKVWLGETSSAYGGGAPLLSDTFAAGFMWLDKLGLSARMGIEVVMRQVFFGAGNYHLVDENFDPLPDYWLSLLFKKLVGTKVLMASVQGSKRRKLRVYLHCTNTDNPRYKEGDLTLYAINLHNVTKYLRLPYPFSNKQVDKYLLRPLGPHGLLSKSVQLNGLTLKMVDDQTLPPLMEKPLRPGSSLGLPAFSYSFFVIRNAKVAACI
# T1 sequence (Q9Y251 36-109 limits assumed): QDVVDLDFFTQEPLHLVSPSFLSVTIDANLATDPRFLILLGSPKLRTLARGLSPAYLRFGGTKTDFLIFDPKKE
# T2: murine heparanase (Mus musculus, UniProt Q6YGZ1)
# T2 construct: made in house; host or cells: Hek293 cells (conditioned medium), inferred for the ELISA
# T2 sequence (Q6YGZ1 28-535): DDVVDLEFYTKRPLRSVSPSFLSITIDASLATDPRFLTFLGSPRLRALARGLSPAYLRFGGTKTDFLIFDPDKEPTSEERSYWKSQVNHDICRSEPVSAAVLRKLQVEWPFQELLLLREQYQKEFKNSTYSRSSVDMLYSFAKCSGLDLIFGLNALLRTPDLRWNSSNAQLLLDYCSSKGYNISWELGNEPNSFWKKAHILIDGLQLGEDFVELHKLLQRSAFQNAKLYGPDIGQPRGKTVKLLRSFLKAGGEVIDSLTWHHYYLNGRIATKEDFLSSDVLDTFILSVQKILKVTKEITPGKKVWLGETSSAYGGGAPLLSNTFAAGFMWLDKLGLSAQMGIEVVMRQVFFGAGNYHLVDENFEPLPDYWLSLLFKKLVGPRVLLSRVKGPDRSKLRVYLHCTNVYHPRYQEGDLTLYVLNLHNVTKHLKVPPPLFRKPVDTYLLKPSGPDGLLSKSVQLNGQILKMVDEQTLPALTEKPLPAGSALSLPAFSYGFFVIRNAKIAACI
# T3: human heparanase (Homo sapiens, UniProt Q9Y251)
# T3 sequence (Q9Y251 36-543): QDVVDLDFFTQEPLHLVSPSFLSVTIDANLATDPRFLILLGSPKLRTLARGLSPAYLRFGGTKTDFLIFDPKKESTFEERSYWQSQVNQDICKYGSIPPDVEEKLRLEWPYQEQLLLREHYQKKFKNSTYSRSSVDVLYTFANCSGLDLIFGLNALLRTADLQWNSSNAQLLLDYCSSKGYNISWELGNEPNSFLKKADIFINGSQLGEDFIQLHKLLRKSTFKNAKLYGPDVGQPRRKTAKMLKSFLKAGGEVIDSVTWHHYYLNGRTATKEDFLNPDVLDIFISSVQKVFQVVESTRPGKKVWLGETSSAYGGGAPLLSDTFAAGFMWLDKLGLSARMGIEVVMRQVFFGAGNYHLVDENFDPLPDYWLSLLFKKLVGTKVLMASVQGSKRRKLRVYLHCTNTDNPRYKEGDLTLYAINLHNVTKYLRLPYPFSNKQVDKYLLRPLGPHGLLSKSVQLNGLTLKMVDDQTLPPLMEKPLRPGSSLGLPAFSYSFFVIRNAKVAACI
# T4: recombinant heparanase captured with rabbit anti-heparanase antibody (Homo sapiens, UniProt Q9Y251)
# T4 construct: Heparanase 8 and 50 kDa sub-units were cloned into pacGP67 as Sma 1-EcoR1 fragments; made in house; host or cells: Hi5 insect cells, baculovirus (pFastBac Dual)
# T4 sequence (Q9Y251 158-543 limits assumed): T1 sequence (Q9Y251 158-543 limits assumed)
# T4 sequence (Q9Y251 36-109 limits assumed): T1 sequence (Q9Y251 36-109 limits assumed)
# T5: Recombinant Hpa1 (Homo sapiens, UniProt Q9Y251)
# T5 construct: Heparanase 8 and 50 kDa sub-units were cloned into pacGP67 as Sma 1-EcoR1 fragments; made in house; host or cells: Hi5 insect cells, baculovirus (pFastBac Dual)
# T5 sequence (Q9Y251 158-543 limits assumed): T1 sequence (Q9Y251 158-543 limits assumed)
# T5 sequence (Q9Y251 36-109 limits assumed): T1 sequence (Q9Y251 36-109 limits assumed)
# B1: 16G1.1: human anti-heparanase monoclonal antibody, G4κ; VH SEQ ID NO 14, VL SEQ ID NO 16 (antibody, listed as Homo Sapiens, V domains shown)
# VH: QVQLVESGGGVVQPGRSLRLSCAASGFTFSSYGMHWVRQAPGKGLEWVAVIWYDGSNKYYADSVKGRFTISRDNSKNTLNLQMNSLRAEDTAVYYCGRDPGTYHYYYHGMDVWGQGTTVTVSS
# VL: YIVMTQSPLSLPVTPGEPASISCRSSQSLLHSNGYNFLDWYLQKPGQSPQLLIYLGSNRASGVPDRFSGSGSGTDFTLKINRVEAEDVGVYYCMQALQTPITFGQGTRLEIK
# B2: 14H12.3: human anti-heparanase monoclonal antibody, G2λ; VH SEQ ID NO 26, VL SEQ ID NO 28 (antibody, listed as Homo Sapiens, V domains shown)
# VH: QVQLVESGGGVVQPGRSLRLSCAASGFTFSSYGMHWVRQAPGKGLEWVAVIWYDGSNKDYADSVKGRFTISRDNSKNTLYLQMNSLRAEDTAVYYCAREGSTSWTDYYGMDVWGQGTTVTVSS
# VL: SYELTQPPSVSVSPGQTARITCSGDALPKRYAYWYQQKSGQALVLVIYEDSKRPSGIPERFSGSSSGTMATLTISGAQVEDEADYYCYSIDSSGNHGVFGGGTKLTVL
# B3: 7B9.1: human anti-heparanase monoclonal antibody, G4λ; VH SEQ ID NO 22, VL SEQ ID NO 24 (antibody, listed as Homo Sapiens, V domains shown)
# VH: QVQLVESGGGVVQPGRSLRLSCAASGFTFSSYGMHWVRQAPGKGLEWVAVIWYDGSNKYYADSVKGRFTISRDNSKNTLYLQMNSLRAEDTAVYYCAREGAPYSSSDAFDIWGQGTMVTVSS
# VL: QSVLTQPPSVSGAPGQRVTISCTGSSSNIGANYDVHWYQQLPGTAPKLLIYGDNNRPSGVPDRFSGSKSGTSASLAITGLQAEDEADYYCQSYDSSLSGSVFGGGTKLTVL
# B4: 15A1.2: fully human anti-heparanase monoclonal antibody, G2κ; VH SEQ ID NO 6, VL SEQ ID NO 8; ATCC PTA-9491 (antibody, listed as Homo Sapiens, V domains shown)
# VH: QVQLVQSGAEVKKPGASVKVSCKVSGYTLTELSMHWVRQAPGKGLEWMGGFDPEDGETIFAQKFQGRVTMTEDTSTDTAYMELSSLRSEDTAVYYCATGLRFLEWFLWGWDVWGQGTTVTVSS
# VL: DIQMTQSPSSVSASVGDRVTITCRASQGISNWLAWYQQTPGKAPQLLIYGASSLQSGVPSRFSGSGSGTDFTLTISSLQPEDFATYYCQQADSFPPTFGQGTKVEIK
# notes: fully human anti-heparanase monoclonal antibody, G2κ; ATCC PTA-9491
# Experiments:
# cynomolgus heparanase = assay: Cross species capture ELISA, cynomolgus heparanase; assay type: binding; conditions: min 0.06, max 1.5 OD units
# Experimental: (§1) Initially, cross species binding to human, murine and cynomolgus heparanase was determined in an ELISA assay in which heparanase was captured onto plates using a rabbit anti-heparanase antibody (Raybiotech, Cat. IP-14-155). Exhaustive supernatants were added to the plates at a final dilution of 1:5 and bound antibody detected with a rabbit anti-human IgG Fc.
# [1] = target: T1, recombinant human heparanase; assay: ELISA binding to directly coated recombinant human heparanase
# Experimental: (§2) Titres of antibodies from Campaigns 1 and 2 were determined in an ELISA. Costar 3368 medium binding plates were coated directly with recombinant human heparanase or plates were coated with Rabbit anti-heparanase antibody (Raybiotech, Cat. IP-14-155) to capture recombinant heparanase. Directly coated heparanase was detected in three separate plates by mouse (InSight Cat. INS-26-1-0000), goat (Santa Cruz, Cat. sc26136) or rabbit (Raybiotech, Cat. IP-14-155) anti-heparanase antibodies, and quantified using appropriate secondary antibodies. Antibody captured heparanase was detected using mouse anti-heparanase (Insight Cat. INS-26-1-0000). At the end of the immunisation program, fusions were performed using mouse myeloma cells and lymphocytes isolated from the spleens and lymph nodes of the immunised mice by means of electroporation, as described in Example 2.
# (§3) Initial screening to detect antibodies binding to human heparanase in both direct coating and antibody capture ELISAs as described above identified 800 hybridomas for further testing; 535 IgG2 from Campaign 1 and 2 and 265 IgG4 from Campaign 2. Enzyme inhibition assays and cross species binding to cynomolgus and murine heparanase, in an antibody capture ELISA, identifed 12 antibodies that were taken forward for sub-cloning to provide purified antibodies for further analysis. Subsequently, confirmation of activity against human heparanase (FIGS. 3 and 4) and inhibition of recombinant cynomolgus and murine heparanase activity in the HS-cryptate degradation assay (FIG. 5a-c), together with sequence analysis, identified 8 antibodies that are described in the table below.
# murine heparanase = target: T2, murine heparanase; assay: Cross species capture ELISA, murine heparanase; assay type: binding; conditions: min 0.06, max 0.9 OD units
# Experimental: as §1
# human heparanase = target: T3, human heparanase; assay: Cross species capture ELISA, human heparanase; assay type: binding
# Experimental: as §1
# [2] = target: T4, recombinant heparanase captured with rabbit anti-heparanase antibody; assay: ELISA binding to antibody-captured heparanase; conditions: antibody capture
# Experimental: as §2, §3
# MCF7-Hpa1#19 xenograft = assay: Subcutaneous xenograft tumour growth, MCF7-Hpa1#19; assay type: in vivo, SCID mice; conditions: once weekly i.p.; 10E9.1 at 7.5 or 15 mg per kg
# Experimental: (§4) MCF7-Hpa1#19 and HCT116 tumour cells were harvested from sub-confluent cultures. A total of 5×10^6 (MCF7-Hpa1#19) or 10^7 (HCT116) tumour cells were inoculated subcutaneously into the flank of male SCID mice. HCT116 tumour cells were implanted in PBS; […] cells were implanted in PBS containing 50% matrigel.
# (§5) When tumours had attained ˜200 mm^3, tumour bearing mice were randomised into treatment groups and dosed with the following; PBS; an isotype matched control IgG2 antibody, 15 mg per kg; anti-heparanase antibody 10E9.1, 7.5 or 15 mg per kg. All treatments were administered once weekly i.p. Tumour growth was measured twice per week using calipers and tumour volumes calculated according to an ellipsoid volume is formula (3.142/6×length×width×width) from measures of the largest tumour diameter and two opposing widths (FIG. 11).
# HCT116 xenograft = assay: Subcutaneous xenograft tumour growth, HCT116; assay type: in vivo, SCID mice; conditions: once weekly i.p.; 10E9.1 at 15 mg per kg
# Experimental: as §4, §5
# Recombinant Hpa1 = target: T5, Recombinant Hpa1; assay: Medium resolution Biacore affinity; assay type: binding
# Experimental: For medium resolution Biacore™ tests, cloned and purified antibodies were used. Each of three purified antibodies (10E9.1, 15A1.2, and 15A11.1) were captured onto a high-density goat anti-human antibody surface over a CM4 Biacore™ chip. Recombinant Hpa1 was diluted to the desired concentration (1 nM and 10 nM) in 10 mM HEPES, 150 mM NaCl, 0.005% tween-20, 0.1 mg per ml BSA pH7.4 (25° C.) immediately prior to injection. Data were fit globally to a 1:1 interaction model with a term for mass transport included. The resulting KD values are summarised below in Table 4.
# MDA MB231-Hpa1#4 cells = assay: Heparanase expression in cells cultured with antibody (Western blot); assay type: cell-based, human; conditions: 25 μg per ml antibody, 72 hrs, compared to untreated or IgG2 control
# Experimental: MDA MB231-Hpa1#4 cells were cultured in the presence of 25 μg per ml anti-human heparanase antibody or control IgG2 antibody (Sigma Cat. No. 1504-1MG) for 72 hrs. Following the removal of culture medium, protein extracts were prepared from the cells in 100 μl RIPA buffer and separated on […] gels and transferred to nitrocellulose as described above. Western blots were probed with an anti-heparanase antibody that detected only pro-heparanase (SantaCruz Cat. No. SC25825).
# [3] = purified antibody captured on CM4 chip, Hpa1 1 nM and 10 nM, 25° C.
Molecule,Binding to heparanase Cyno (cynomolgus heparanase),Binding to direct coated heparanase [1],Binding to heparanase Mouse (murine heparanase),Binding to heparanase Human (human heparanase),Binding to captured heparanase [2],Tumour growth inhibition (MCF7-Hpa1#19 xenograft),Tumour growth inhibition (HCT116 xenograft),Kd (Recombinant Hpa1; 1:1 interaction model with mass transport term),ka (Recombinant Hpa1; [3]),kd (Recombinant Hpa1; [3]),Inhibition of heparanase expression (MDA MB231-Hpa1#4 cells)
B1,1.64 OD units,3.63 OD units,0.61 OD units,1.84 OD units,3.82 OD units,,,,,,
B2,0.95 OD units,3.69 OD units,0.14 OD units,0.61 OD units,3.27 OD units,,,,,,
B3,1.06 OD units,3.78 OD units,0.58 OD units,0.68 OD units,6.0 OD units,,,,,,
B4,0.11 OD units,0.08 OD units,0.14 OD units,0.19 OD units,0.92 OD units,not inhibited,not inhibited,0.0859 nM,1.88e+06 M⁻¹ s⁻¹,0.000105 s⁻¹,significant inhibition of heparanase expression
